Data on 94 variants can be found in the supplement of paper PMC10567573.

The chains are these.
B1: ZNF8 (parent)
chain: SLGRHKRTHTGEKPYTCSVCGKSF
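Further: lentivirally expressed fusions sorted by FACS into six bins by GFP to DsRed ratio, PSI derived from sequencing read proportions per bin multiplied by bin number.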

The variants in this data set derive from B1. Put plainly: protein stability index of a GFP-peptide fusion (GPS, HEK-293T) (PSI 1-6); higher = more stable. Particulars: c terminus: a fixed tail appended.
For SLGRHKRTHTGEKPYTCSVCGKMF, the protein stability index is 2.18.

As to SLGRHKRTHTGEKPYTCSVCGKPF, the protein stability index amounted to 2.39.

For SLGRHKRTHTGEKPYTCSVCGKKF, the protein stability index is 3.3.

As for SLGRHKRTHTGEKPYTCSVCGKFF, the protein stability index amounted to 2.38.

As to SLGRHKRTHTGEKPYTCSVCGKHF, the protein stability index came out at 3.12.

Consider SLGRHKRTHTGEKPYTCSVCGKDF, for which the protein stability index is 3.3.

SLGRHKRTHTGEKPYTCSVCGKQF: the protein stability index is 2.25.

In the case of SLGRHKRTHTGEKPYTCSVCGKAF, the protein stability index came out at 2.5.

As for SLGRHKRTHTGEKPYTCSVCGKNF, the protein stability index turned out to be 2.9.

In the case of SLGRHKRTHTGEKPYTCSVCGKEF, the protein stability index amounted to 3.03.

Take SLGRHKRTHTGEKPYTCSVCGKGF: the protein stability index is 2.94.

Consider SLGRHKRTHTGEKPYTCSVCGKTF, for which the protein stability index came out at 3.32.

In the case of SLGRHKRTHTGEKPYTCSVCGKLF, the protein stability index turned out to be 2.69.

Take SLGRHKRTHTGEKPYTCSVCGKCF: the protein stability index was determined as 2.48.

As for SLGRHKRTHTGEKPYTCSVCGKYF, the protein stability index is 2.79.

Regarding SLGRHKRTHTGEKPYTCSVCGKVF, the protein stability index is 1.95.

Regarding SLGRHKRTHTGEKPYTCSVCGKWF, the protein stability index amounted to 2.12.

SLGRHKRTHTGEKPYTCSVCGKIF: the protein stability index amounted to 2.8.

With SLGRHKRTHTGEKPYTCSVCGKRF, the protein stability index was 3.2.

As to SLGRHKRTHTGEKPYTCSVCYKSF, the protein stability index is 1.92.

Take SLGRHKRTHTGEKPYTCSVCQKSF: the protein stability index came to 2.59.

Take SLGRHKRTHTGEKPYTCSVCSKSF: the protein stability index turned out to be 2.94.

Turning to SLGRHKRTHTGEKPYTCSVCEKSF, the protein stability index was 2.1.

Take SLGRHKRTHTGEKPYTCSVCKKSF: the protein stability index is 3.36.

As to SLGRHKRTHTGEKPYTCSVCCKSF, the protein stability index stood at 2.

Regarding SLGRHKRTHTGEKPYTCSVCPKSF, the protein stability index worked out at 3.12.

As for SLGRHKRTHTGEKPYTCSVCLKSF, the protein stability index worked out at 1.9.

Turning to SLGRHKRTHTGEKPYTCSVCRKSF, the protein stability index was 3.03.

In the case of SLGRHKRTHTGEKPYTCSVCNKSF, the protein stability index stood at 2.98.

In the case of SLGRHKRTHTGEKPYTCSVCTKSF, the protein stability index amounted to 3.14.

Regarding SLGRHKRTHTGEKPYTCSVCIKSF, the protein stability index was found to be 2.01.

Take SLGRHKRTHTGEKPYTCSVCMKSF: the protein stability index came out at 2.71.

Turning to SLGRHKRTHTGEKPYTCSVCVKSF, the protein stability index came out at 2.17.

With SLGRHKRTHTGEKPYTCSVCHKSF, the protein stability index was 2.78.

Take SLGRHKRTHTGEKPYTCSVCWKSF: the protein stability index turned out to be 1.88.

Turning to SLGRHKRTHTGEKPYTCSVCAKSF, the protein stability index was found to be 2.35.

Take SLGRHKRTHTGEKPYTCSVCDKSF: the protein stability index stood at 3.11.

As to SLGRHKRTHTGEKPYTCSVCFKSF, the protein stability index turned out to be 2.5.

Consider SLGRHKRTHTGEKPYTFSVCGKSF, for which the protein stability index worked out at 2.4.

In the case of SLGRHKRTHTGEKPYTPSVCGKSF, the protein stability index is 3.17.

As to SLGRHKRTHTGEKPYTVSVCGKSF, the protein stability index amounted to 3.58.

SLGRHKRTHTGEKPYTKSVCGKSF: the protein stability index amounted to 3.65.

With SLGRHKRTHTGEKPYTESVCGKSF, the protein stability index was found to be 3.77.

For the variant SLGRHKRTHTGEKPYTISVCGKSF, the protein stability index was 2.38.

On to SLGRHKRTHTGEKPYTQSVCGKSF, for which the protein stability index was 3.76.

Consider SLGRHKRTHTGEKPYTASVCGKSF, for which the protein stability index is 3.81.

In the case of SLGRHKRTHTGEKPYTYSVCGKSF, the protein stability index turned out to be 2.77.

With SLGRHKRTHTGEKPYTSSVCGKSF, the protein stability index came to 3.3.

As for SLGRHKRTHTGEKPYTHSVCGKSF, the protein stability index came out at 3.32.

For the variant SLGRHKRTHTGEKPYTLSVCGKSF, the protein stability index came out at 2.33.

On to SLGRHKRTHTGEKPYTNSVCGKSF, for which the protein stability index was 3.78.

With SLGRHKRTHTGEKPYTTSVCGKSF, the protein stability index was determined as 3.19.

In the case of SLGRHKRTHTGEKPYTWSVCGKSF, the protein stability index was determined as 2.81.

With SLGRHKRTHTGEKPYTRSVCGKSF, the protein stability index turned out to be 2.75.

With SLGRHKRTHTGEKPYTDSVCGKSF, the protein stability index is 4.3.

Take SLGRHKRTHTGEKPYTMSVCGKSF: the protein stability index is 2.96.

With SLGRHKRTHTGEKPYTGSVCGKSF, the protein stability index was found to be 3.49.

Regarding SLGRHKRTHTGEKPYTCSVCGLSF, the protein stability index was 2.36.

Consider SLGRHKRTHTGEKPYTCSVCGMSF, for which the protein stability index is 2.07.

SLGRHKRTHTGEKPYTCSVCGRSF: the protein stability index was 3.09.

Regarding SLGRHKRTHTGEKPYTCSVCGVSF, the protein stability index worked out at 2.48.

Take SLGRHKRTHTGEKPYTCSVCGQSF: the protein stability index is 2.47.

In the case of SLGRHKRTHTGEKPYTCSVCGFSF, the protein stability index amounted to 2.54.

Take SLGRHKRTHTGEKPYTCSVCGASF: the protein stability index stood at 2.82.

On to SLGRHKRTHTGEKPYTCSVCGHSF, for which the protein stability index stood at 3.12.

With SLGRHKRTHTGEKPYTCSVCGGSF, the protein stability index amounted to 2.19.

For the variant SLGRHKRTHTGEKPYTCSVCGSSF, the protein stability index was 2.34.

On to SLGRHKRTHTGEKPYTCSVCGNSF, for which the protein stability index is 2.87.

For the variant SLGRHKRTHTGEKPYTCSVCGPSF, the protein stability index came out at 3.29.

With SLGRHKRTHTGEKPYTCSVCGYSF, the protein stability index came to 3.41.

For SLGRHKRTHTGEKPYTCSVCGISF, the protein stability index worked out at 2.05.

On to SLGRHKRTHTGEKPYTCSVCGDSF, for which the protein stability index was determined as 3.01.

As for SLGRHKRTHTGEKPYTCSVCGESF, the protein stability index turned out to be 3.66.

Take SLGRHKRTHTGEKPYTCSVCGTSF: the protein stability index worked out at 3.37.

Turning to SLGRHKRTHTGEKPYTCSVCGCSF, the protein stability index stood at 2.54.

For the variant SLGRHKRTHTGEKPYTCKVCGKSF, the protein stability index worked out at 2.98.

In the case of SLGRHKRTHTGEKPYTCHVCGKSF, the protein stability index was found to be 2.26.

In the case of SLGRHKRTHTGEKPYTCQVCGKSF, the protein stability index amounted to 3.16.

In the case of SLGRHKRTHTGEKPYTCGVCGKSF, the protein stability index was 2.83.

For the variant SLGRHKRTHTGEKPYTCCVCGKSF, the protein stability index came out at 2.63.

As for SLGRHKRTHTGEKPYTCTVCGKSF, the protein stability index was found to be 2.68.

As to SLGRHKRTHTGEKPYTCLVCGKSF, the protein stability index came to 2.44.

As for SLGRHKRTHTGEKPYTCEVCGKSF, the protein stability index came out at 3.38.

For the variant SLGRHKRTHTGEKPYTCFVCGKSF, the protein stability index stood at 2.08.

Turning to SLGRHKRTHTGEKPYTCRVCGKSF, the protein stability index is 2.54.

As to SLGRHKRTHTGEKPYTCMVCGKSF, the protein stability index is 2.58.

As for SLGRHKRTHTGEKPYTCNVCGKSF, the protein stability index was found to be 2.02.

SLGRHKRTHTGEKPYTCDVCGKSF: the protein stability index was 2.76.

Regarding SLGRHKRTHTGEKPYTCIVCGKSF, the protein stability index was 2.34.

As for SLGRHKRTHTGEKPYTCWVCGKSF, the protein stability index turned out to be 2.84.

For SLGRHKRTHTGEKPYTCYVCGKSF, the protein stability index came out at 2.71.

For SLGRHKRTHTGEKPYTCPVCGKSF, the protein stability index is 3.

As for SLGRHKRTHTGEKPYTCVVCGKSF, the protein stability index turned out to be 2.83.

Regarding SLGRHKRTHTGEKPYTCAVCGKSF, the protein stability index is 2.94.
